Conditions in all cases: remark: other sources report otherwise
The target in experiment [1] is MHC class I molecule A*0101. Put plainly: iTopia iScore.
The target of experiment [2] is MHC class I molecule A*0201. Put plainly: iTopia iScore.
The target in experiment [3] is MHC class I molecule A*0301. The experiment can be described thus: iTopia iScore.
The target of experiment [4] is MHC class I molecule B*0702. Put plainly: iTopia iScore.
Experiment [5] has as its target MHC class I molecule HLA-B*0702 (iTopia plate-bound monomer). Put plainly: iTopia off-rate assay, 37 C; fit R^2 0.09.
Experiment [6] has as its target MHC class I molecule HLA-A*0201 (iTopia plate-bound monomer). The experiment can be described thus: iTopia off-rate assay, 37 C; fit R^2 0.35.
Experiment [7] has as its target MHC class I molecule HLA-A*0301 (iTopia plate-bound monomer). The experiment can be described thus: iTopia off-rate assay, 37 C; fit R^2 0.99.
The target in experiment [8] is MHC class I molecule A*0301. The experiment can be described thus: iTopia affinity assay (ED50), peptide titration on plate-bound MHC.
The target of experiment [9] is MHC class I molecule B*0702. Described as above.
The target in experiment [10] is MHC class I allele A*0101. The experiment can be described thus: iTopia peptide binding assay.
In experiment [11] the target is MHC class I allele A*0201. The experiment can be described thus: iTopia peptide binding assay.
In experiment [12] the target is MHC class I allele A*0301. The experiment can be described thus: iTopia peptide binding assay.
Experiment [13] has as its target MHC class I allele B*0702. The experiment can be described thus: iTopia peptide binding assay.
In experiment [14] the target is MHC class I allele A*0201 monomer (human). The experiment can be described thus: iTopia, multiparametric iScore.
Experiment [15] has as its target MHC class I allele B*0702 monomer (human). Put plainly: iTopia, multiparametric iScore.

In the case of RLARLALVL (here or on the partner: biotin (bound to streptavidin-coated plate)) [5T4 9-mer peptide 9 …], the iScore was 0 in experiment [1], 1.21 in experiment [2], 0.052 in experiment [3] and 0.515 in experiment [4]. Besides, the figures for the t½ half life in experiment [5], in experiment [6] and in [7] were 2 h, 15.9 h and 0.3 h, respectively.

For orientation: EC50 means the concentration at which the effect is half-maximal. Higher therefore signals lower potency in that assay. As for RLARLALVL (here or on the partner: biotin (bound via biotin to streptavidin-coated plates)) [5T4 9 mer peptide 9 (…)], the EC50 in experiment [8] is 3000 nM; in experiment [9] it was 700 nM.

In the case of RLARLALVL (here or on the partner: bound via biotin to streptavidin-coated plate) [5T4 9 mer peptide 9 …], the % of positive control peptide binding in experiment [10] was determined as 2%; in [11], 65%; in experiment [12], 48%; in experiment [13] it was 84%.

As for RLARLALVL (here or on the partner: biotinylated, bound to streptavidin-coated plate) [5T4 9-mer peptide 9], the values for the iScore in experiment [14] and in [15] were 1.21 and 0.515, respectively.

(Values after patent US20090280138A1.)
